In assay [1] the target is T1, hepatic lipase (HL) on hepatocyte (HepG2) cells (UniProt P11150 23-499, limits assumed).
T1 sequence (looked up): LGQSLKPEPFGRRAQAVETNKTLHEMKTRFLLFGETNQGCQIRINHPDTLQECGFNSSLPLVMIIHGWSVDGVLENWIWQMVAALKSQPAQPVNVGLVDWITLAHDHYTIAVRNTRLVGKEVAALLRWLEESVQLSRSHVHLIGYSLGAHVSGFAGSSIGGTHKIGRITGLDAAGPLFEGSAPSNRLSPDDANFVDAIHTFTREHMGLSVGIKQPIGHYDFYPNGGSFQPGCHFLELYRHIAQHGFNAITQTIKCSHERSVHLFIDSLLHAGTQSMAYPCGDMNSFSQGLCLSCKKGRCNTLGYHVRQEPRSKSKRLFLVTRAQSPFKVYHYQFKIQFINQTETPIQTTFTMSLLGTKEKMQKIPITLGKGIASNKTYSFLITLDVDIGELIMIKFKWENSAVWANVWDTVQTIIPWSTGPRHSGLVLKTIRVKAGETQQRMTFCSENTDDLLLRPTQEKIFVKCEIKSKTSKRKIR
Put plainly: cell-based or functional assay.

Assay [2] has as its target lipoprotein lipase (LpL), SIGMA. The experiment in a line: cell-based or functional assay.

lipoprotein lipase (LpL), SIGMA, sequence (P11151 29-478): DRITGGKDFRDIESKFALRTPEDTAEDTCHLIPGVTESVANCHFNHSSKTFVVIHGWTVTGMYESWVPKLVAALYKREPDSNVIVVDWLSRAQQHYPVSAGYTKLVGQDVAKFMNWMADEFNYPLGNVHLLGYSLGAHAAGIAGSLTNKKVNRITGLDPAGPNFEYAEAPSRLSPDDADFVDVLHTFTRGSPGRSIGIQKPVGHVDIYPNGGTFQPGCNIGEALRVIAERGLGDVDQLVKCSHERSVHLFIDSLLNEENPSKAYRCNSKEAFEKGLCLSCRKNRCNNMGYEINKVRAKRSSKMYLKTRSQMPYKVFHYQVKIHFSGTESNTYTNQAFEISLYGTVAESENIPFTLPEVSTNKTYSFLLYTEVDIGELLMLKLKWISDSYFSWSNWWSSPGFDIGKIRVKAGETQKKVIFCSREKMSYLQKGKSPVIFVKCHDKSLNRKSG

On to ARLSRCVQVLSRKLTLKAKALHARIQQNLDQLREELSRA [AV199-237], for which, in assay [1], the “hepatic lipase activity in cell culture” value was roughly 3 fold and the “hepatic lipase activity in live hepatocytes, 10 µM peptide” value is roughly 2.8 fold.
As for ARLSRCVQVLSRKLTLKAKALKARIQQNLDQLRE [AV-H/K], in assay [2], the “LpL activity in the absence of VLDL, 10 µM peptide” value was roughly 1.6 fold; the “LpL activity in the presence of VLDL, 10 µM peptide” value is roughly 8 fold; the “LpL activity in the presence of VLDL, relative to AV199-232” value was determined as 44%.
In the case of ARLSRCVQVFSRKLTLKAKALKARIQQNFDQLRE [AV-H/K-2F], the “lipase stimulating activity, peptide (80 µg/ml) preincubated with VLDL (20 µg/ml)” value in assay [2] was roughly 2 fold.

These data come from patent US20170305981A1 (UNIVERSITY OF CHICAGO, published 2017).
